# Data published in article PMC7781310.
# pKd: −log10 of the molar value.
# Biological target: sACE2_(2).v2.4-IgG1 (human) (UniProt Q9BYF1)
# Test: BLI
Substance,koff [s⁻¹],pKd
SARS-CoV-2 RBD-8h Y449K (from UniProt P0DTC2 333-529) (domain or fragment),0.004,–
SARS-CoV-2 RBD-8h N501Y (from UniProt P0DTC2 333-529) (domain or fragment),–,> 10.00
